# Data published in the Human Domainome abundance scans (Beltran et al. 2025).
# ± gives the uncertainty stated by the source.
# B1: Zinc finger homeobox protein 4, residues 2183 to 2238; numbered along this chain, Q86UP3 (parent)
# chain: SSRTRFTDYQLRVLQDFFDTNAYPKDDEIEQLSTVLNLPTRVIVVWFQNARQKARK
# Variants of: B1
# Assay: abundance fitness (aPCA) (normalised: wild type 0, dead -1); higher = more abundant; growth selection in yeast, the domain comes from the species named
# Conditions: Homo sapiens
row,Variant,abundance fitness
1,SSRTRFTDYQLRVLQDFFDTNAYPKDDEIEQLSTVLNLPTRVVVVWFQNARQKARK [I43V],-0.12 ± 0.11
2,SSRTRFTDYQLRVLQDFFDTNAYPKDDEIEQLSTVLNLPTRVDVVWFQNARQKARK [I43D],-0.881 ± 0.29
3,SSQTRFTDYQLRVLQDFFDTNAYPKDDEIEQLSTVLNLPTRVIVVWFQNARQKARK [R3Q],0.053 ± 0.11
4,SSETRFTDYQLRVLQDFFDTNAYPKDDEIEQLSTVLNLPTRVIVVWFQNARQKARK [R3E],0.201 ± 0.11
5,SSNTRFTDYQLRVLQDFFDTNAYPKDDEIEQLSTVLNLPTRVIVVWFQNARQKARK [R3N],0.364 ± 0.13
6,SSRTRFTDYQLRVLQDFFDTNAYPKDDEIEQLSTVLNLPTRVIVVWFQNARQKARN [K56N],-0.248 ± 0.18
7,SSRTRFTDYQLRVLQDFFDTNAYNKDDEIEQLSTVLNLPTRVIVVWFQNARQKARK [P24N],-0.945 ± 0.23
8,SSRTRFTDYQLRVLQDFFDTNAYGKDDEIEQLSTVLNLPTRVIVVWFQNARQKARK [P24G],-0.813 ± 0.087
9,SSRTRFTDYQLRVLQDFFDTNAYPKKDEIEQLSTVLNLPTRVIVVWFQNARQKARK [D26K],0.067 ± 0.13
10,SSRTRFTDYQLRVLQDFFDTNAYPKWDEIEQLSTVLNLPTRVIVVWFQNARQKARK [D26W],-0.047 ± 0.1
11,SSRTRFTDYQLRVLQDFFDTNAYPKDDEIEQLSTILNLPTRVIVVWFQNARQKARK [V35I],-0.207 ± 0.19
12,SSRTRFTDYQLRVLQDFFDTNAYPKDDEIEQLSTRLNLPTRVIVVWFQNARQKARK [V35R],0.06 ± 0.081
13,SSRTRFTDYQLRVLQDFFDTNAYPKDDEIEQLSTDLNLPTRVIVVWFQNARQKARK [V35D],-0.222 ± 0.16
14,SSRTRFTDYQLRVLQDFFDTNAYPKDDEICQLSTVLNLPTRVIVVWFQNARQKARK [E30C],-0.18 ± 0.13
15,SSRTRFTDYQLRVLQDFFDTNAYPKDDEIKQLSTVLNLPTRVIVVWFQNARQKARK [E30K],-0.154 ± 0.15
16,SSRTRFTDYQLRVLQDFFDTNRYPKDDEIEQLSTVLNLPTRVIVVWFQNARQKARK [A22R],0.005 ± 0.086
17,SSRTRFTDYQLRVLQDFFDTNLYPKDDEIEQLSTVLNLPTRVIVVWFQNARQKARK [A22L],-0.219 ± 0.1
18,SSRTRFTDYQLRVLQDFFDTNAYPKDDEIEQESTVLNLPTRVIVVWFQNARQKARK [L32E],-0.723 ± 0.12
19,SSRTRFTDYQLRVLQDFFDTNAYPKDDEIEQMSTVLNLPTRVIVVWFQNARQKARK [L32M],-0.019 ± 0.11
20,SSRTRFTDYQLRVLQDFFDTNAYPVDDEIEQLSTVLNLPTRVIVVWFQNARQKARK [K25V],-0.068 ± 0.082
21,SSRTRFTDYQLRVLQDFFDTNAYPKDDEIEQLSTVLNLPTRVIVLWFQNARQKARK [V45L],0.007 ± 0.1
22,SSRTRFTDYQLRVLQDFFDTNAYPKDDEIEQLSTVLNLPTRVIVAWFQNARQKARK [V45A],-0.09 ± 0.11
23,SSRTRFTDYQLRVLQDRFDTNAYPKDDEIEQLSTVLNLPTRVIVVWFQNARQKARK [F17R],0.02 ± 0.078
24,SSRTRFTDYQLRVLQDGFDTNAYPKDDEIEQLSTVLNLPTRVIVVWFQNARQKARK [F17G],-0.243 ± 0.082

row,Variant,abundance fitness
1,SSRTRFTDYQLRTLQDFFDTNAYPKDDEIEQLSTVLNLPTRVIVVWFQNARQKARK [V13T],0.013 ± 0.13
2,SSRTRFTDYQLRVLQDFFDTNAYPKDDEIEQLSTVLNLPTREIVVWFQNARQKARK [V42E],0.23 ± 0.14
3,SSRTRFTDYQLRVLQDFFDTNAYPKDDEIEQLSTVLNLPTRNIVVWFQNARQKARK [V42N],-0.345 ± 0.27
4,SSRTRFTDYQLRVLQDFFDTNAYPKDDEIEQLSTVLNLPTRSIVVWFQNARQKARK [V42S],-0.077 ± 0.12
5,SSRTRFTDYQLRVLQDFFDTNAYPKDDEIEQLSTVLNLPTRLIVVWFQNARQKARK [V42L],-0.155 ± 0.1
6,SSRTRFTDYQLRVLQDFFMTNAYPKDDEIEQLSTVLNLPTRVIVVWFQNARQKARK [D19M],-0.061 ± 0.12
7,SSRTRFTDYQLRVLQDFFDTNAYPKDDEIEQLSTVLNLPTRVIVVWFQNTRQKARK [A50T],-0.087 ± 0.19
8,SSRTRFTDYQLRVLQDFFDTNAYPKDDEIEQLSTVLNLPTRVIVVWFQNIRQKARK [A50I],-0.396 ± 0.41
9,SSRTRFTDYQLRVLQDFFDTNAYPKDDEIEQLSTVLNLPTRVIVVWFQNFRQKARK [A50F],-0.054 ± 0.28
10,SSRTRFTDYQLRVLQDFFDTNAYPKDDEIEQLSTVLNLPTRVIVVWFQNRRQKARK [A50R],-0.155 ± 0.086
11,SSRTRFTDYQSRVLQDFFDTNAYPKDDEIEQLSTVLNLPTRVIVVWFQNARQKARK [L11S],0.138 ± 0.14
12,SSRTRFTDYQLRVLQDFPDTNAYPKDDEIEQLSTVLNLPTRVIVVWFQNARQKARK [F18P],-0.891 ± 0.096
13,SSRTRFTDYQLRVLQDFGDTNAYPKDDEIEQLSTVLNLPTRVIVVWFQNARQKARK [F18G],-0.711 ± 0.12
14,SSRTRFTDYQLRVLQDFSDTNAYPKDDEIEQLSTVLNLPTRVIVVWFQNARQKARK [F18S],-0.225 ± 0.071
15,SSRTRFTDYKLRVLQDFFDTNAYPKDDEIEQLSTVLNLPTRVIVVWFQNARQKARK [Q10K],-0.512 ± 0.13
16,SSRTRFTDYCLRVLQDFFDTNAYPKDDEIEQLSTVLNLPTRVIVVWFQNARQKARK [Q10C],-0.395 ± 0.082
17,SSRTRFTDYQLRVLQDFFDTNAYPKDDEIEQLSTVLNLHTRVIVVWFQNARQKARK [P39H],0.154 ± 0.15
18,SSRTRFTDYQLRVLQDFFDTNAYPKDDEIEQLSTVLNLFTRVIVVWFQNARQKARK [P39F],-1.1 ± 0.25
19,SSRTRFTDYQLRVLQDFFDTNAYPKDDEIEQLSTVHNLPTRVIVVWFQNARQKARK [L36H],-0.701 ± 0.11
20,SSRTRFTDYQLRVLQDFFDTNAYPKDDEIEQLSTVDNLPTRVIVVWFQNARQKARK [L36D],-0.933 ± 0.14
21,SSRTRFTDYQLRVLQDFFDTNAYPKDDEIESLSTVLNLPTRVIVVWFQNARQKARK [Q31S],-0.042 ± 0.11
22,SSRTRFTDYQLRVLQDFFDTNAYPKDDEIEILSTVLNLPTRVIVVWFQNARQKARK [Q31I],-0.316 ± 0.18
23,SSRTRFTDYQLRVLQDFFDTNAYPKDDEIEPLSTVLNLPTRVIVVWFQNARQKARK [Q31P],-0.343 ± 0.14
